Measurements from article PMC3753675.

Columns and labels:
Experiment in all cases: EMSA
GST-hHSF1 (human) = biological target: T1, GST-hHSF1 (human) (UniProt Q00613); settings: binding buffer ([…], room temperature 2 h
T1 sequence: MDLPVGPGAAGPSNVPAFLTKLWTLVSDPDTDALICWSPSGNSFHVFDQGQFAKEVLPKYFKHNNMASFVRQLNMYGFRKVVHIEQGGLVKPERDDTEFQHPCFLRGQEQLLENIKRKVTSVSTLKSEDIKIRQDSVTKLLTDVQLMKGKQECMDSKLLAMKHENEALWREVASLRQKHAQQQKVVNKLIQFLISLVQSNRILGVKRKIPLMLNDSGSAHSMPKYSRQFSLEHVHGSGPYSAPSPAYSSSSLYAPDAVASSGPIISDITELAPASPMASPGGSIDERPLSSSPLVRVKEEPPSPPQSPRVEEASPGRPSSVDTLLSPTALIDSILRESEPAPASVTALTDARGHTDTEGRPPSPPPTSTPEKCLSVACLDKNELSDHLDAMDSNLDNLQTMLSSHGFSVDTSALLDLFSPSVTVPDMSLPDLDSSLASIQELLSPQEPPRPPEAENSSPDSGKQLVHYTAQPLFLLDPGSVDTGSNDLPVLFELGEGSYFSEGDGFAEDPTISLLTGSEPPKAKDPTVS

GST-hHSF2 (human) = biological target: T2, GST-hHSF2 (human) (UniProt Q03933); settings: binding buffer ([…], room temperature 2 h
T2 sequence: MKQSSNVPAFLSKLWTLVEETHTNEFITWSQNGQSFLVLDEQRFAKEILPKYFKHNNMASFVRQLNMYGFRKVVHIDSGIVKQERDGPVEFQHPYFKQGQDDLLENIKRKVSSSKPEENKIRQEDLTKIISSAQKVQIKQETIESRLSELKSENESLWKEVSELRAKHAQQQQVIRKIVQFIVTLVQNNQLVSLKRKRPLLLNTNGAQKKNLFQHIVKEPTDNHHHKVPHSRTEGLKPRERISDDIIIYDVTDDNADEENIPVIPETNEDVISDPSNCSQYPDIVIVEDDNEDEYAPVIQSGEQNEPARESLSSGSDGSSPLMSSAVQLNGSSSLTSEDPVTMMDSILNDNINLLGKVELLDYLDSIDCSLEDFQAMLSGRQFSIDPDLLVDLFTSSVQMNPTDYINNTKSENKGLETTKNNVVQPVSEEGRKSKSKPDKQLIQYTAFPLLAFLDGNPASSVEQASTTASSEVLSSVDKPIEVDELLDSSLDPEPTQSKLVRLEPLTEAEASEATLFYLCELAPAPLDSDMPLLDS

dHSF = biological target: T3, dHSF (Drosophila melanogaster, UniProt P22813 1-691)
T3 sequence: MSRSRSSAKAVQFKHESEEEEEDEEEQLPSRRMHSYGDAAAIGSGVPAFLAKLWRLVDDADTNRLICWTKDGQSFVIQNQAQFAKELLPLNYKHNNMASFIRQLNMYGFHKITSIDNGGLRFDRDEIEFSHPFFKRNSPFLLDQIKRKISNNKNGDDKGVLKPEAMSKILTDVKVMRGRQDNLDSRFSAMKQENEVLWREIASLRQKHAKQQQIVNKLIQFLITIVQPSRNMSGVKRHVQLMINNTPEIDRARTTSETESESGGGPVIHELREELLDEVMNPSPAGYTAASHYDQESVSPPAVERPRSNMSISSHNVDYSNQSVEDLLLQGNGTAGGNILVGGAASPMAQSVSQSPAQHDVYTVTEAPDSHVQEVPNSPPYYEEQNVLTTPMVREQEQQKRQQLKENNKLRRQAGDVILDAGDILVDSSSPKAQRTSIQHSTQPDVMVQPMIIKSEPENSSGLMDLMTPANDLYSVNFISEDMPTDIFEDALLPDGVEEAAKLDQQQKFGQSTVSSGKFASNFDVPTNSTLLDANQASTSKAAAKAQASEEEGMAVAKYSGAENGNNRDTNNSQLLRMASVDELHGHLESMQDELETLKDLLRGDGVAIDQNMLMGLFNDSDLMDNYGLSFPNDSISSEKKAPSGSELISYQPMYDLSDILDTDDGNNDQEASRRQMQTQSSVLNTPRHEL

## GGGAAUGGAUCCACAUCUACGAAUUCAAUCAAGUCCCCAGACUCAGCAACACUGGACAGCGAUAUGCAGAUAACCAAGACCAAUUCACUCCAGUUCACUGCAGACUUGACGAAGCUU [hHSF2-R5-2]
GST-hHSF1 (human)
  Kd: < 20 nM
GST-hHSF2 (human)
  Kd: < 20 nM

## GGGAAUGGAUCCACAUCUACGAAUUCCACUCCAUAGUAUCUAGAAGCCCUGCCGAAAACGAGAGCGCUUACGCUUAUAAAUGAUCAACCUACCUCGUUCACUGCAGACUUGACGAAGCUU [hHSF1-R5-1]
GST-hHSF1 (human)
  Kd: < 20 nM
GST-hHSF2 (human)
  Kd: < 20 nM

B1: hHSF2-R5-2 (structured_RNA)
RNA: GGGAAUGGAUCCACAUCUACGAAUUCAAUCAAGUCCCCAGACUCAGCAACACUGGACAGCGAUAUGCAGAUAACCAAGACCAAUUCACUCCAGUUCACUGCAGACUUGACGAAGCUU
dHSF
  Kd: ~70 nM

B2: hHSF1-R5-1 (structured_RNA)
RNA: GGGAAUGGAUCCACAUCUACGAAUUCCACUCCAUAGUAUCUAGAAGCCCUGCCGAAAACGAGAGCGCUUACGCUUAUAAAUGAUCAACCUACCUCGUUCACUGCAGACUUGACGAAGCUU
dHSF
  Kd: ~70 nM
